Assay results taken from publication PMC3115558 (Biochemistry, 2011).
Ends that are not written are not given here.

Molecular target: PP1α catalytic subunit (New England BioLabs) (UniProt P62139 1-330)
Assay: SPR

Sequence of PP1α catalytic subunit (New England BioLabs) (P62139 whole entry): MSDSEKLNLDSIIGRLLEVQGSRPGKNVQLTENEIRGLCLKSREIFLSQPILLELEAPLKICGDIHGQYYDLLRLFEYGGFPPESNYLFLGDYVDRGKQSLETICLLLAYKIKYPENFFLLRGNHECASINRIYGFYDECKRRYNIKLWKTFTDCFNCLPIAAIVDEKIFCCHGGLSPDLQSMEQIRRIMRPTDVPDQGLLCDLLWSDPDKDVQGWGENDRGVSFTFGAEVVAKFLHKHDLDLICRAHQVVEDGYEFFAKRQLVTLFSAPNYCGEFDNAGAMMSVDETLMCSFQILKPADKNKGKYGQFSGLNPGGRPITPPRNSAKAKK

B1: Biotinylated AKAP79 synthetic peptide, amino acids 25-49, mutant (AxxAxA) (peptide)
chain: AERQKEKASMLCAKRAKAAAKALKP
modifications: also: biotinylated, position not given here
In the case of B1, the Kd is reported as 341 nM.
